The Immune Epitope Database (IEDB)

How the values were obtained:
[1] = molecular target: HLA-A*02:01; experiment: IEDB peptide-MHC binding, purified MHC/competitive/fluorescence; filed as Kd, often an IC50 or EC50 that approximates it; ≥ and ≤ were set here for values at or beyond the usual limits of such assays
[2] = molecular target: HLA-A*02:03; experiment: as above
[3] = molecular target: HLA-A*31:01; experiment: as above
[4] = molecular target: HLA-B*51:01; experiment: as above
[5] = molecular target: HLA-B*27:03; experiment: as above
[6] = molecular target: HLA-B*46:01; experiment: as above
[7] = molecular target: HLA-B*15:17; experiment: as above
[8] = molecular target: HLA-B*15:01; experiment: as above
[9] = molecular target: HLA-A*68:02; experiment: as above
[10] = molecular target: HLA-A*24:03; experiment: as above
[11] = molecular target: HLA-A*02:12; experiment: as above
[12] = molecular target: HLA-A*02:19; experiment: as above
[13] = molecular target: HLA-B*18:01; experiment: as above
[14] = molecular target: HLA-A*69:01; experiment: as above
[15] = molecular target: HLA-A*02:16; experiment: as above
[16] = molecular target: HLA-B*57:01; experiment: as above
[17] = molecular target: HLA-A*26:01; experiment: as above
[18] = molecular target: HLA-B*39:01; experiment: as above
[19] = molecular target: HLA-A*30:01; experiment: as above; conditions: source organism: Vaccinia virus WR
[20] = molecular target: HLA-A*11:01; experiment: as above; conditions: source organism: Vaccinia virus WR
[21] = molecular target: HLA-A*26:02; experiment: as above; conditions: source organism: Vaccinia virus WR
[22] = molecular target: HLA-B*35:01; experiment: as above; conditions: source organism: Vaccinia virus WR
[23] = molecular target: HLA-B*27:05; experiment: IEDB peptide-MHC binding, purified MHC/direct/fluorescence; filed as Kd, often an IC50 or EC50 that approximates it; ≥ and ≤ were set here for values at or beyond the usual limits of such assays; conditions: source organism: Camelpox virus M-96
[24] = molecular target: HLA-C*12:03; experiment: as above
[25] = molecular target: HLA-A*31:01; experiment: as above; conditions: source organism: Camelpox virus M-96
[26] = molecular target: HLA-B*46:01; experiment: as above; conditions: source organism: Camelpox virus M-96
[27] = molecular target: HLA-A*01:01; experiment: as above; conditions: source organism: Camelpox virus M-96
[28] = molecular target: HLA-B*58:01; experiment: as above; conditions: source organism: Camelpox virus M-96
[29] = molecular target: HLA-B*48:01; experiment: as above; conditions: source organism: Camelpox virus M-96
[30] = molecular target: HLA-B*15:01; experiment: as above; conditions: source organism: Camelpox virus M-96
[31] = molecular target: HLA-B*57:01; experiment: as above; conditions: source organism: Camelpox virus M-96
[32] = molecular target: HLA-B*07:02; experiment: as above
[33] = molecular target: HLA-B*27:05; experiment: IEDB peptide-MHC binding, purified MHC/competitive/fluorescence; filed as Kd, often an IC50 or EC50 that approximates it; ≥ and ≤ were set here for values at or beyond the usual limits of such assays
[34] = molecular target: HLA-A*02:11; experiment: as above
[35] = molecular target: HLA-B*08:02; experiment: IEDB peptide-MHC binding, purified MHC/direct/fluorescence; filed as Kd, often an IC50 or EC50 that approximates it; ≥ and ≤ were set here for values at or beyond the usual limits of such assays
[36] = molecular target: HLA-A*03:01; experiment: IEDB peptide-MHC binding, purified MHC/competitive/fluorescence; filed as Kd, often an IC50 or EC50 that approximates it; ≥ and ≤ were set here for values at or beyond the usual limits of such assays; conditions: source organism: Brucella abortus S19
[37] = molecular target: HLA-A*29:02; experiment: as above; conditions: source organism: Brucella abortus S19
[38] = molecular target: HLA-A*24:02; experiment: as above
[39] = molecular target: HLA-C*15:02; experiment: IEDB peptide-MHC binding, purified MHC/direct/fluorescence; filed as Kd, often an IC50 or EC50 that approximates it; ≥ and ≤ were set here for values at or beyond the usual limits of such assays
[40] = molecular target: HLA-C*03:03; experiment: as above; conditions: source organism: Yersinia frederiksenii ATCC 33641
[41] = molecular target: HLA-C*14:02; experiment: as above; conditions: source organism: Entamoeba histolytica HM-1:IMSS
[42] = molecular target: HLA-B*08:01; experiment: as above; conditions: source organism: Giardia lamblia ATCC 50803
[43] = source organism: Influenza A virus (A/Gf/HK/SSP607/2003(H9N2))
[44] = source organism: Vaccinia virus WR
[45] = source organism: Vibrio parahaemolyticus AQ3810
[46] = source organism: Brucella abortus S19
[47] = source organism: Yersinia frederiksenii ATCC 33641
[48] = source organism: Entamoeba histolytica HM-1:IMSS

Sequence: AMITYITRK
- Kd [1, 43]: ≥ 20 µM
- Kd [2, 43]: ≥ 20 µM
- Kd [3, 43]: 0.158 µM
- Kd [4, 43]: ≥ 20 µM
- Kd [5, 43]: ≥ 20 µM
- Kd [6, 43]: ≥ 20 µM
- Kd [7, 43]: ≥ 20 µM
- Kd [8, 43]: ≥ 20 µM
- Kd [9, 43]: ≥ 20 µM
- Kd [10, 43]: ≥ 20 µM
- Kd [11, 43]: ≥ 20 µM
- Kd [12, 43]: ≥ 20 µM
- Kd [13, 43]: ≥ 20 µM
- Kd [14, 43]: ≥ 20 µM
- Kd [15, 43]: ≥ 20 µM
- Kd [16, 43]: ≥ 20 µM
- Kd [17, 43]: ≥ 20 µM
- Kd [18, 43]: ≥ 20 µM

Sequence: FVFEATKLY
- Kd [19]: ≥ 20 µM
- Kd [20]: 2.08 µM
- Kd [1, 44]: ≥ 20 µM
- Kd [7, 44]: 0.12 µM
- Kd [9, 44]: 0.0496 µM
- Kd [21]: 0.0668 µM
- Kd [17, 44]: 0.0167 µM
- Kd [22]: 0.0057 µM
- Kd [23]: ≥ 20 µM
- Kd [24, 44]: ≤ 0.001 µM
- Kd [25]: ≥ 20 µM
- Kd [26]: ≥ 20 µM
- Kd [27]: ≥ 20 µM
- Kd [28]: ≥ 20 µM
- Kd [29]: ≥ 20 µM
- Kd [30]: 0.0177 µM
- Kd [31]: ≥ 20 µM
- Kd ([32]; source organism: Camelpox virus M-96): ≥ 20 µM

Sequence: GKLNRLIGK
- Kd ([33]; source organism: Influenza A virus (A/Hong Kong/CUHK13527/2003(H3N2))): 1.84 µM

Sequence: HFIYHKREK
- Kd [1, 45]: ≥ 20 µM
- Kd [2, 45]: ≥ 20 µM
- Kd [3, 45]: 0.0188 µM
- Kd [4, 45]: ≥ 20 µM
- Kd [5, 45]: ≥ 20 µM
- Kd [6, 45]: ≥ 20 µM
- Kd [7, 45]: ≥ 20 µM
- Kd [8, 45]: ≥ 20 µM
- Kd [9, 45]: ≥ 20 µM
- Kd [10, 45]: ≥ 20 µM
- Kd [11, 45]: ≥ 20 µM
- Kd [12, 45]: ≥ 20 µM
- Kd [13, 45]: ≥ 20 µM
- Kd [14, 45]: ≥ 20 µM
- Kd [15, 45]: ≥ 20 µM
- Kd [34, 45]: ≥ 20 µM
- Kd [16, 45]: ≥ 20 µM
- Kd [17, 45]: ≥ 20 µM
- Kd [18, 45]: ≥ 20 µM

Sequence: KCRLRMDKL
- Kd ([35]; source organism: Dengue virus 2 Thailand/16681/84): ≥ 20 µM

Sequence: KQWIVAGAI
- Kd [1, 46]: 0.0017 µM
- Kd [2, 46]: ≥ 20 µM
- Kd [4, 46]: ≥ 20 µM
- Kd [5, 46]: ≥ 20 µM
- Kd [6, 46]: ≥ 20 µM
- Kd [7, 46]: ≥ 20 µM
- Kd [8, 46]: ≥ 20 µM
- Kd [9, 46]: ≥ 20 µM
- Kd [10, 46]: ≥ 20 µM
- Kd [36]: ≥ 20 µM
- Kd [11, 46]: ≥ 20 µM
- Kd [12, 46]: ≥ 20 µM
- Kd [13, 46]: ≥ 20 µM
- Kd [37]: ≥ 20 µM
- Kd [14, 46]: ≥ 20 µM
- Kd [34, 46]: ≤ 0.0001 µM
- Kd [16, 46]: ≥ 20 µM
- Kd [17, 46]: ≥ 20 µM
- Kd [18, 46]: ≥ 20 µM

Sequence: KQWRGDKML
- Kd ([33]; source organism: Bacillus thuringiensis str. Al Hakam): 0.0852 µM

Sequence: KYNGIITDTI
- Kd ([38]; source organism: Influenza A virus (A/goose/Guangdong/1/1996(H5N1))): 0.0002 µM

Sequence: LAIEATLAF
- Kd [39, 47]: ≥ 20 µM
- Kd [24, 47]: 1.04 µM
- Kd [40]: ≥ 20 µM

Sequence: PYMSALFWI
- Kd ([38]; source organism: Cryptosporidium parvum Iowa II): 0.0008 µM

Sequence: RLTGREGAV
- Kd ([15]; source organism: Pseudomonas aeruginosa PACS2): 0.345 µM
- Kd ([32]; source organism: Pseudomonas aeruginosa): 7.02 µM

Sequence: RYSGFVRTLF
- Kd ([38]; source organism: Influenza A virus (A/turkey/Ohio/313053/2004(H3N2))): ≤ 0.0001 µM

Sequence: SWLYNYFVF
- Kd [38, 48]: 0.0003 µM
- Kd [41]: 0.438 µM
- Kd [39, 48]: ≥ 20 µM

Sequence: YSKIRGAAL
- Kd ([35]; source organism: Giardia lamblia ATCC 50803): 0.445 µM
- Kd [42]: 0.027 µM
